# Reference: paper PMC5434536, “ING3 promotes prostate cancer growth by activating the androgen receptor” (BMC Medicine, 2017)
# Target: T1, HA-tagged TIP60 (pCIN4-FLAG-HA-TIP60) (UniProt Q92993 1-513)
# T1 construct: TIP60 from the plasmid pCIN4-FLAG-HA-TIP60 (gift from Dr. Wei Gu)
# Assay: co-IP; cells co-transfected with AR, TIP60 and increasing amounts of ING3 plasmid + 10 nM MB for 24 h; AR or TIP60 immunoprecipitated with anti-AR or HA-affinity beads
# Conditions: partners not purified
# T1 sequence (Q92993 whole entry): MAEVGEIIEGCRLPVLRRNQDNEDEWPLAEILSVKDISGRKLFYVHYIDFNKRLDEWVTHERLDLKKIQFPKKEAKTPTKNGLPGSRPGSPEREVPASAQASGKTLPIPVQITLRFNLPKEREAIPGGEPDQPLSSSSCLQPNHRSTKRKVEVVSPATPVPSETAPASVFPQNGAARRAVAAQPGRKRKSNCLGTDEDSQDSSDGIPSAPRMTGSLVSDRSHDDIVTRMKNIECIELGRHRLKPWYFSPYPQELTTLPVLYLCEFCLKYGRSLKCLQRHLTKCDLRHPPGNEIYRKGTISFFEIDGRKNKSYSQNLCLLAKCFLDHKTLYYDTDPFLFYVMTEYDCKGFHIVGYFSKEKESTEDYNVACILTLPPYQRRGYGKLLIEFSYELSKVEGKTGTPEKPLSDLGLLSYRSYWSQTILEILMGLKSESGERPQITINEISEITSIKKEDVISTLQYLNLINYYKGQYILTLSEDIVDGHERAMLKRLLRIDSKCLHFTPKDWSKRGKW
binder,measurement,value
"Myc-tagged androgen receptor (pCMV-3myc-AR) (receptor, UniProt P10275 1-920, looked up, androgen receptor from the plasmid pCMV-3myc-AR (gift from Dr. Marja Nevalainen); pCMV-3myc-AR is the only full-length AR plasmid named; also called AR-Myc; Myc-tagged AR; source: HEK293T, transfected, in lysate) MEVQLGLGRVYPRPPSKTYRGAFQNLFQSVREVIQNPGPRHPEAASAAPPGASLLLLQQQQQQQQQQQQQQQQQQQQQQQETSPRQQQQQQGEDGSPQAHRRGPTGYLVLDEEQQPSQPQSALECHPERGCVPEPGAAVAASKGLPQQLPAPPDEDDSAAPSTLSLLGPTFPGLSSCSADLKDILSEASTMQLLQQQQQEAVSEGSSSGRAREASGAPTSSKDNYLGGTSTISDNAKELCKAVSVSMGLGVEALEHLSPGEQLRGDCMYAPLLGVPPAVRPTPCAPLAECKGSLLDDSAGKSTEDTAEYSPFKGGYTKGLEGESLGCSGSAAAGSSGTLELPSTLSLYKSGALDEAAAYQSRDYYNFPLALAGPPPPPPPPHPHARIKLENPLDYGSAWAAAAAQCRYGDLASLHGAGAAGPGSGSPSAAASSSWHTLFTAEEGQLYGPCGGGGGGGGGGGGGGGGGGGGGGGEAGAVAPYGYTRPPQGLAGQESDFTAPDVWYPGGMVSRVPYPSPTCVKSEMGPWMDSYSGPYGDMRLETARDHVLPIDYYFPPQKTCLICGDEASGCHYGALTCGSCKVFFKRAAEGKQKYLCASRNDCTIDKFRRKNCPSCRLRKCYEAGMTLGARKLKKLGNLKLQEEGEASSTTSPTEETTQKLTVSHIEGYECQPIFLNVLEAIEPGVVCAGHDNNQPDSFAALLSSLNELGERQLVHVVKWAKALPGFRNLHVDDQMAVIQYSWMGLMVFAMGWRSFTNVNSRMLYFAPDLVFNEYRMHKSRMYSQCVRMRHLSQEFGWLQITPQEFLCMKALLLFSIIPVDGLKNQKFFDELRMNYIKELDRIIACKRKNPTSCSRRFYQLTKLLDSVQPIARELHQFTFDLLIKSHMVSVDFPEMMAEIISVQVPKILSGKVKPIYFHTQ",fold increase of the AR-TIP60 association (ratio AR:HA-TIP60) with co-transfected ING3 against without,~8 fold
